For the first experiment, the target named is Fyn (UniProt P39688). Kind of experiment: proximity ligation assay (PLA), Fyn3 + Tau1 antibodies (tau unphosphorylated at S198/S199/S202). The note with it: transfected Mapt-/- neurons; n = 16-31 neurons per construct from two experiments; parent: est. 1.0; read off a plot.
As for “wildtype 0N4R mouse tau (mTau^WT) P233A; P236A”, the ratio to parent was determined as 0.2.
As for wildtype 0N4R mouse tau (mTau^WT) Y18F, the ratio to parent was determined as 1.7.
Take “wildtype 0N4R mouse tau (mTau^WT) P216A; P219A”: the ratio to parent is 1.1.

A further experiment concerns the target Fyn (UniProt P39688). As to the kind of experiment: proximity ligation assay (PLA), Fyn3 + Tau5 antibodies (total tau). The settings on record: transfected Mapt-/- neurons; n = 16-31 neurons per construct from two experiments; parent: est. 1.0; read off a plot.
Take “wildtype 0N4R mouse tau (mTau^WT) P233A; P236A”: the ratio to parent worked out at 0.2.
On the same count and under the same terms, then wildtype 0N4R mouse tau (mTau^WT) Y18F, with 0.3; and “wildtype 0N4R mouse tau (mTau^WT) P216A; P219A”, with 0.41.

For the origin of these results see paper PMC5438564.
